The values below are quoted from earlier work in publication PMC3076547.

The target in this series is Nef (Human immunodeficiency virus 1) (UniProt P04324).

pKd: −log10 of the molar value.

In general, pKd refers to −log10 of the Kd, conventionally taken in molar units. Turning to Hck SH3 (from UniProt P08631), the pKd was 6.60.
